Where “and” joins values, the source holds several entries; their conditions need not be identical. Equal entries are not always repeated.

In assay [1] the target is T1, human complement component C6 (human, UniProt P13671 22-934).
T1 construct: Protein was purified from human serum (113 kDa); biotinylated in the Fab ELISAs; also called human C6; hC6
The assay can be described thus: SPR, Biacore 2000, derived from kd. The protocol: (§1) Binding Kinetics: To investigate kinetics of 7E5 binding to C6, surface plasmon resonance measurement in a BIACORE 2000 (GE Healthcare) equipped with a research-grade CM5 sensor chip was used. The ligand (C6, 113 kDa) was immobilized using amine-coupling chemistry. The surface of flow cell two was activated for 7 minutes with a 1:1 mixture of 0.1 M NHS (N-hydroxysuccinimide) and 0.4 M EDC (3-(N,N-dimethylamino) propyl-N-ethylcarbodiimide) at a flow rate of 5 μl/min. The ligand at a concentration of 10 μg/ml in 10 mM sodium acetate, pH 5.0, was immobilized at a density of 955 RU. The surface was blocked with a 7 minute injection of 1 M ethanolamine, pH 8.0.
(§2) To collect kinetic binding data, the analytes (anti C6-antibodies, 150 kDa) in 10 mM HEPES, 150 mM NaCl, 0.005% P20, pH 7.4, were injected over the two flow cells at a flow rate of 30 μl/min and at a temperature of 25° C. The injected concentrations differ per antibody. Data were collected at a rate of 1 Hz. The complex was allowed to associate and dissociate for 90 and 300 seconds, respectively. The surfaces were regenerated with a 10 second injection of 0.1 M HCl. Duplicate injections (in random order) of each sample and a buffer blank were flowed over the two surfaces.
(§3) The data were fit to a simple 1:1 interaction model using the global data analysis option available within BiaEvaluation 4.1 software.
(Surface plasmon resonance follows binding to a sensor surface in real time, without labels.)

Assay [2] deals with T1, human complement component C6. Description: SPR, Biacore 2000, C6 amine-coupled to CM5 chip, antibody as analyte, 25 C, 1:1 model. On the procedure: as §1, §2, §3
Assay [3] addresses T2, peptide 418 (human).
T2 construct: Synthesized and spotted on a membrane (peptide array)
T2 peptide: GSCQDGRQLEWGLERT
Description: peptide array of overlapping 16mer C6 peptides on a membrane. The protocol: Peptide arrays were used to determine the epitope of 7E5 in human C6. Consecutive overlapping 16mer peptides (peptides 16 amino acids long, overlapping 14 amino acids) from the C6 protein sequence were synthesized and spotted in a grid pattern on a membrane. The membrane was then incubated with 7E5 antibody to detect which peptide was recognized by the antibody.

Assay [4] concerns the target T1, human complement component C6. Description: SPR, Biacore 2000. On the procedure: as §1, §2, §3
Assay [5] deals with T3, peptide 420 (human).
T3 peptide: DGRQLEWGLERTRLSS
The assay can be described thus: alanine scan on selected peptides (peptide array). The protocol:
Subsequently, an alanine scan (in which alanine is used to replace amino acids one by one) on selected peptides was performed to help pinpoint the epitope.

Assay [6] addresses T1, human complement component C6. The assay can be described thus: ELISA on biotinylated hC6 and Biacore 3000 off-rate screening of periplasmic extracts on immobilized hC6. For orientation: ELISA stands for enzyme-linked immunosorbent assay.

T1 sequence (P13671 22-934 limits assumed): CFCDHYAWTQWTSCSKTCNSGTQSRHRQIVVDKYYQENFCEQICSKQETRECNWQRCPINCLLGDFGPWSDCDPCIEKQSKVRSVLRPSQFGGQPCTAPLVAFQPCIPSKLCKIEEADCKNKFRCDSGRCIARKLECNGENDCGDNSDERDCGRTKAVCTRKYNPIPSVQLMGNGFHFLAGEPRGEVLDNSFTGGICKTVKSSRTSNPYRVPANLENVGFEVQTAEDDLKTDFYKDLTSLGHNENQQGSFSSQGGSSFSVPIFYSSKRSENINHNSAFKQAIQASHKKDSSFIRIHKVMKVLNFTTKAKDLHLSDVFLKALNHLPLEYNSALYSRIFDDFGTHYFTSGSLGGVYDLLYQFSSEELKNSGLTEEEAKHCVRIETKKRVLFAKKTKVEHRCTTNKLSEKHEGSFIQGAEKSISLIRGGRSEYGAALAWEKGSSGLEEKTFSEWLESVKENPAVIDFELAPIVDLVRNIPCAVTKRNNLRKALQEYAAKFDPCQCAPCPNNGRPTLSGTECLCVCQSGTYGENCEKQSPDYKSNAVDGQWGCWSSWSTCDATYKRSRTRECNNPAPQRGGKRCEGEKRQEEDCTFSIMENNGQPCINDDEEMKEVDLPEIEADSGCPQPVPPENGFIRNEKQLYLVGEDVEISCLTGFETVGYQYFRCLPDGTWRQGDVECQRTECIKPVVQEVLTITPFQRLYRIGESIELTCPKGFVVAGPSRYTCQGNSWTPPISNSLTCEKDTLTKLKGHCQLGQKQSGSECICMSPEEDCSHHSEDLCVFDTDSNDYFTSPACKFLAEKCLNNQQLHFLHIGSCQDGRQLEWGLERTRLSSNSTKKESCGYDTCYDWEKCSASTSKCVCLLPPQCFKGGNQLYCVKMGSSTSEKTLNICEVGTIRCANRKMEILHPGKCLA

B1: rat anti-human C6 monoclonal antibody 7E5 (antibody, V domains shown)
VH: EVQLVESDGGLVQPGGSLKLSCVASGFSFSDYYMAWVRQGPTKGLEWVATINYDGSSTYYRESVKGRFTISRDNAKRTLYLQMDSLRSEDTATYYCSRPSTEALFAYWGHGTLVTVSS
VL: DVVLTQTPSTLSATIGQSVSISCRSSQSLLNDVGNTYLYWYLQRPGQSPQLLIYLVSDLGSGVPNRFSGSGSGTDFTLKISGVEAEDLGIYYCMQASHAPYTFGAGTNLELK
notes: Whole antibody (150 kDa analyte in SPR) from a rat hybridoma; also called 7E5 mAb; supernatant #11
As usually defined, the Kd is the free concentration of one partner at which half of the binding sites on the other are occupied at equilibrium, for simple one-to-one binding. Read a high Kd as weaker binding. What is called koff is the first-order rate constant of dissociation. Higher therefore signals fast dissociation. By kon is commonly meant a measure of how fast the partners come together. Consider B1, for which the “t1/2 (complex half life)” value in assay [1] was 45 h and 45.1 h. In assay [2], this molecule showed a Kd of 0.253 nM, a koff of 4.27e-06 s⁻¹ and an on-rate constant (kon) of 16900 M⁻¹ s⁻¹. Also, the binding result in assay [3] is on record as “binds”. Also, the “half-life of the 7E5-C6 complex” value in assay [4] is above 40 h. Further, the binding result in assay [5] is reported as “binds”.

B2: humanized 7E5 Fab 7F06 (Fab, V domains shown)
VH: EVQLVESGGGLVQPGGSLKLSCAASGFTFRDYYMAWVRQGPGKGLEWVATINYDGSSTYYRESVKGRFTISRDNAKNSLYLQMDSLRAEDTAVYYCARPSTEALFAYWGHGTLVTVSS
VL: DVVLTQTPLTLSVTPGQPVSISCRSSQSLLNDVGNTYLYWYLQKPGQSPQLLIYLVSDLGSGVPNRFSGSGSGTDFTLKISRVEAEDVGVYYCMQASHAPYTFGAGTRLELK
notes: also called 7F6
As to B2, the binding result in assay [6] is given as “binds”.

B3: humanized 7E5 Fab 7E11 (Fab, V domains shown)
VH: EVQLVESGGGLVQPGGSLRLSCVASGFTFSDYYMAWVRQAPGKGLEWVATINYDGSSTYYRESVKGRFTISRDNAKNTLYLQMDSLRAEDTAVYYCARPSTEALFAYWGQGTLVTVSS
VL: DIVLTQTPLSLSATPGQSVSISCRSSQSLLNDVGNTYLYWYLQRPGQSPQLLIYLVSDLGSGVPDRFSGSGSGTDFTLKISRVEAEDVGVYYCMQASHAPYTFGAGTNLEIK
As for B3, in assay [6], the binding result is listed as “binds”.

B4: humanized 7E5 Fab 7F02 (Fab, V domains shown)
VH: EVQLVESGGGLVQPGGSLKLSCAASGFTFSDYYMAWVRQGPGKGLEWVATINYDGSSTYYRESVKGRFTISRDNAKNSLYLQMNSLRSEDTAVYYCARPSTEALFAYWGHGTLVTVSS
VL: DVVMTQTPSTLSATPGQSASISCRSSQSLLNDVGNTYLYWYLQKPGQSPQLLIYLVSDLGSGVPNRFSGSGSGTDFTLKISRVEAEDVGIYYCMQASHAPYTFGAGTRLELK
notes: also called 7F2
As to B4, the binding result in assay [6] is given as “binds”.

B5: humanized 7E5 Fab 8G09 (Fab, V domains shown)
VH: EVQLVESDGGLVQPGGSLRLSCVASGFTFSDYYMAWVRQAPGKGLEWVATINYDGSSTYYRESVKGRFTISRDNAKRTLYLQMDSLRAEDTAVYYCARPSTEALFAYWGQGTLVTVSS
VL: DIVLTQTPLTLSVTPGQSVSISCRSSQSLLNDVGNTYLYWYLQKPGQSPQLLIYLVSDLGSGVPNRFSGSGSGTDFTLKISRVEAEDVGVYYCMQASHAPYTFGAGTRLEIK
For the molecule B5, the binding result in assay [6] is recorded as “binds”.

B6: humanized 7E5 Fab 7E12 (Fab, V domains shown)
VH: EVQLVESDGGLVQPGGSLKLSCAASGFTFSDYYMAWVRQGPGKGLEWVATINYDGSSTYYRESVKGRFTISRDNAKNTLYLQMNSLRAEDTATYYCARPSTEALFAYWGHGTLVTVSS
VL: DVVLTQTPSTLSVTPGQPASISCRSSQSLLNDVGNTYLYWYLQKPGQSPQLLIYLVSDLGSGVPNRFSGSGSGTDFTLKISRVEAEDVGIYYCMQASHAPYTFGQGTNLEIK
For the molecule B6, the binding result in assay [6] is “binds”.

B7: humanized 7E5 Fab 7F11 (Fab, V domains shown)
VH: EVQLVESDGGLVQPGGSLKLSCAASGFTFSDYYMAWVRQGPTKGLEWVATINYDGSSTYYRESVKGRFTISRDNAKNTLYLQMNSLRAEDTAVYYCSRPSTEALFAYWGHGTLVTVSS
VL: DVVLTQTPSTLSVTPGQPVSISCRSSQSLLNDVGNTYLYWYLQKPGQSPQLLIYLVSDLGSGVPNRFSGSGSGTDFTLKISGVEAEDVGVYYCMQASHAPYTFGAGTRLEIK
Consider B7, for which the binding result in assay [6] is “binds”.

B8: humanized 7E5 Fab 8F07 (Fab, V domains shown)
VH: EVQLVESGGGLVQPGGSLRLSCAASGFSFSDYYMAWVRQGPGKGLEWVATINYDGSSTYYRESVKGRFTISRDNAKNTLYLQMNSLRSEDTATYYCARPSTEALFAYWGHGTLVTVSS
VL: DVVLTQTPLTLSVTPGQSVSISCRSSQSLLNDVGNTYLYWYLQKPGQSPQLLIYLVSDLGSGVPDRFSGSGSGTDFTLKISGVEAEDVGVYYCMQASHAPYTFGAGTKLEIK
notes: also called 8F7
As for B8, the binding result in assay [6] is “binds”.
